Marks after values point to notes of the source that are not given here.
System: Msr1^hu/hu ApoE^−/− mice, peritoneal cells
Assay: Ex vivo LPS-induced cytokine production by peritoneal cells after in vivo dosing
Set-up: species or system mouse
Details: for Cytokine IL-6 / Cytokine KC-GRO / Cytokine TNF-α: ex vivo LPS
Description: To examine the anti-inflammatory effect of the anti-MSR1 antibody-steroid conjugates, an ex-vivo and in vivo LPS-induced inflammatory immune response model was performed.
Generation of a mouse inflammatory immune response model. Mice homozygously expressing human MSR1 extracellular domain in place of the mouse MSR1 extracellular domain and with a homozygous deletion of the ApoE gene were utilized (resulting mice referred to as Msr1^hu/hu ApoE^−/− mice).
Assay protocol for ex vivo LPS-induced responses. In ex vivo LPS challenge experiments, mice were intraperitoneally administered with 10 μL/g of anti-MSR1 antibody-steroid conjugates (H1H21234N-N297Q-LP13), isotype control steroid conjugate (Isotype control-LP13), unconjugated anti-MSR1 antibody (H1H21234N-N297Q) and isotype control antibodies at different time points (24, 48, and 72 hours) prior to harvesting the peritoneal cells from peritoneal cavity. […] All mice were sacrificed at 0 hour time point and peritoneal cells were obtained from the peritoneum by the peritoneal lavage technique. In brief, 5 mL of ice cold 1×PBS (ThermoFisher Scientific, Cat #20012027) containing 2% BSA (Gibco, Cat #A9576) and 0.6 mM EDTA (ThermoFisher Scientific, Cat #15575020) were injected into the peritoneal cavity using 27 g needle. […] The resuspended cells were plated at 500,000 cells per well in 24-well tissues culture plates and incubated with or without 10 ng/mL of LPS for 18 hours.
Measurement of cytokines at 18 hours post-LPS ex vivo challenge. Supernatants were collected into 96-well round bottom tissue culture plates at 18 hours post-ex vivo LPS challenge and stored at […] until further analysis. Cytokine concentrations in the supernatants were measured using a Proinflammatory Panel 1 (mouse) multiplex immunoassay kit (MesoScale Diagnostics, Cat #K15048D) according to manufacturer's instructions. Electrochemiluminescence was read on a Meso Scale Diagnostics SECTOR® instrument. Data analysis was performed using GraphPad Prism™ software. Statistical significance within the groups was determined by one-way Anova with Turkey's multiple comparison post-test (*p<0.01; **p<0.001; ***p<0.0001).

[1] = administered 24 hours before peritoneal cell isolation
[2] = administered 48 hours before peritoneal cell isolation
[3] = administered 72 hours before peritoneal cell isolation

B1: H1H21234N-N297Q-LP13 (conjugate)
VH: QVQLQESGPGLVKPSETLSLTCTVTGGSISRNYWSWIRQPPGKGLEWIGYIYYSGSIDYNPSLKSRVTISVDTSKNQFSLKLSSMTAADTAVYYCARDRWNWKYGMDVWGQGTTVIVSS
VL: EIVLTQSPGTLSLSPGERATLSCRASQTVRNNYLAWYHQKPGQAPRLLIYGASSRATGIPDRFSGSGSGTDFTLTISRLEPEDFTVYYCHQYGNSPWTFGQGTKMEIKR
Cytokine IL-6 [1]: 21.1 ± 1.38**** ng/mL
Cytokine KC-GRO [1]: 9.3 ± 1.7 ng/mL
Cytokine TNF-α [1]: 0.26 ± 0.08*** ng/mL
Cytokine KC-GRO [2]: 6.3 ± 2.3* ng/mL
Cytokine TNF-α [2]: 0.58 ± 0.06* ng/mL
Cytokine IL-6 [3]: 50.7 ± 14.1* ng/mL
Cytokine KC-GRO [3]: 13.1 ± 1.1 ng/mL
Cytokine TNF-α [3]: 0.47 ± 0.1** ng/mL
effect on ex vivo LPS-induced cytokine production (IL-6, KC-GRO, TNF-α) by peritoneal cells (i.p. dosing 24, 48, 72 hours (conjugates, antibodies) or 2 hours (free steroids) before cell harvest, 10 ng/mL LPS 18 hours): efficacious in inhibiting LPS-induced cytokine production by peritoneal cells in a time-dependent manner

— patent US12497460B2, “Anti-MSR1 antibodies and methods of use thereof” (REGENERON PHARMACEUTICALS, INC., priority 2018, dated 2025)
